This note sets out measurements from patent US20110135647.

The series has as its system T1, pp1-18 peptide (cell-permeable peptide, RRRRRRRRRRR-G-MEGISNFKTPSKLSEKKK).
T1 sequence: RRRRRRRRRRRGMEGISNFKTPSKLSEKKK

With “CDK1-cyclin B1 recombinant protein complex (New England Biolabs)”, the “phosphorylation of recombinant PBK/TOPK by CDK1-cyclin B1 (in vitro kinase assay with peptide added)” value is given as “the phosphorylation of recombinant PBK/TOPK protein by CDK1-cyclin B1 recombinant proteins was diminished in dose-dependent manner by addition of the pp 1-18 peptide”.
